Biological target: Recombinant human furin (human), P09958
Test: furin, Pyr-RTKR-AMC cleavage

Sequence of Recombinant human furin (human), P09958 (P09958 108-714 limits assumed): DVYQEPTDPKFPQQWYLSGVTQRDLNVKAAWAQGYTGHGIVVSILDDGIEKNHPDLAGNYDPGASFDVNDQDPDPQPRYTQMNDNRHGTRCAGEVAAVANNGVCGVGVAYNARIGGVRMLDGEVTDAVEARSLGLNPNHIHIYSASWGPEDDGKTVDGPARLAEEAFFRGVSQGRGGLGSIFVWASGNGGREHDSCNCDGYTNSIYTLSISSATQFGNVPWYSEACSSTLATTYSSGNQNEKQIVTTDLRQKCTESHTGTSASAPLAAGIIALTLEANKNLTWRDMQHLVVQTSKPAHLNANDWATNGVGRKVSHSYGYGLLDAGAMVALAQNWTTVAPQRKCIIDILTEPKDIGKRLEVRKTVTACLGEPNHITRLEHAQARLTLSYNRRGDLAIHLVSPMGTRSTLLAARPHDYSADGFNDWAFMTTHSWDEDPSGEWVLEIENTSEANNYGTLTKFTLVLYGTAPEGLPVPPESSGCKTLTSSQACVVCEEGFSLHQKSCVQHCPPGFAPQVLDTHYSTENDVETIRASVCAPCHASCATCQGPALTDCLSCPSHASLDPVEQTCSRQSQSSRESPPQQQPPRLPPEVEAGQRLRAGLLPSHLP

Binder	Ki
TPRERRRKAAV (modifications not checked) […]	> 100 nM
RKKRT (modifications not checked)	1000 nM
RRKKRT (modifications not checked)	32.5 nM
RRRKKRT (modifications not checked)	17.6 nM

From patent US20090029924A1
